Measured values reported in article doi:10.1101/2023.02.01.526556.
Where no end group is shown, it is not given here.

Key:
[1] = target: AkFaNaC W167F (Aplysia kurodai)
[2] = target: AkFaNaC W167Y (Aplysia kurodai)

B1: FMRFamide (peptide)
peptide: FMRF-NH2
In the case of B1, the EC50 of the FMRFamide-gated Na+ current (COVC, Xenopus oocytes) [1] is reported as > 100 µM and the EC50 of the FMRFamide-gated Na+ current (COVC, Xenopus oocytes) [2] is reported as > 100 µM.
